The record followed here is paper doi:10.1101/2025.08.18.670902, “Pyrimethamine inhibits mutant NRF2 as a molecular glue” (bioRxiv, 2025).

The target in the test is T1, Kelch fragment (Ala321-Glu611 of human KEAP1 protein) (human, UniProt Q14145 321-611, biotinylated (site not stated)).
T1 construct: KEAP1, human, Kelch fragment Ala321-Glu611, printed MW 34,038.03 Da; Captured on a streptavidin chip through biotin; also called Kelch fragment of KEAP1; biotinylated Kelch; source: expressed in vitro, purified, biotinylated, validated by LC-MS
The test is described as follows: SPR; Biacore S200, biotinylated Kelch immobilised on a streptavidin chip; peptide analyte in 2-fold dilutions 200 μM to 0.39 μM, 30 μl/min, 90 s association, 180 s dissociation, analysis at 15 °C; without PYR. The following applies: both partners purified.

T1 sequence (Q14145 321-611): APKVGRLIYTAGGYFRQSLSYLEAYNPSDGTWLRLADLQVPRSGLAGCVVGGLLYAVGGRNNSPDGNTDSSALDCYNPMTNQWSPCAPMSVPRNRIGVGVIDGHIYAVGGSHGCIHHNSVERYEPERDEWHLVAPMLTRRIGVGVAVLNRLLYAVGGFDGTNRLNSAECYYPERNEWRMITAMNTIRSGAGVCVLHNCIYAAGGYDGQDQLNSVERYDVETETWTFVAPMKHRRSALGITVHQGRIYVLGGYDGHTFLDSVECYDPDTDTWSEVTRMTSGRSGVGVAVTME

B1: DLG^WT peptide (NRF2 residues 17-40) (peptide)
peptide: MDLIDILWRQDIDLGVSREVFDFS
notes: NRF2 (NFE2L2), human, residues 17-40 with the DLG motif; also called 24-mer peptide; source: synthetic peptide
With B1, the binding result is recorded as “binds”.
